According to PMC10632514 (2023):
Where no end group is shown, it is not given here. The star is where a group is joined. Palmitoyl = CCCCCCCCCCCCCCCC(=O)*

B1: N-terminally palmitoylated MPER peptide (peptide)
peptide: Palmitoyl-DLLELDKWASLWNWFNITNWLWYIK
B2: rmAb 235 IgG1 (antibody, V domains shown)
VH: QVQLQQSGTDLVRPGTSVKVSCKASGYAFTTYFIEWVKQRPGQGLEWIGVINPGSGIPNYNEMFKGKATLTADKSSSTAYLHLSSLTSDDSAVYFCARAPYYYGSSYYYFDVWGAGTTVTVSS
VL: DIVMSQSPSSLAVSVGEKVTMSCKSSQSLLYSSNQKNYLAWYQQKPGQSPKLLIYWASTRDSGVPDRFTGSGSGTDFTLTISSVKAEDLAVYCCQQYYNYPFTFGAGTKLEIK
B3: rmAb 460 IgG1 (antibody, V domains shown)
VH: EVQLQQSGAELVKPGASVKLSCTASGFNIKDTYMHWVKQRPEQGLEWIGRIDPANGNTKYDPKFQGKATITADTSSNTAYLQLSSLTSEDTAVYFCTRSRGYFGNYYFDYWGQGTTLTVSS
VL: QIVLTQSPAVMSASPGERVTMTCSASSSVSYMYWYQQKPRSSPKPWIYLTSNLASGVPARFSGSGSGTSYSLTISSMEAEDAATYYCQQWSSIPLTFGAGTKLELK

Key:
Test in all cases: SPR; liposome-bound MPER
275 = biological target: 275
274 = biological target: 274
203 = biological target: 203
484 = biological target: 484
[1] = biological target: B1

Row | Binder | Kd 275 | Kd 274 | Kd 203 | Kd 484 | Kd [1]
1 | B1 | 18 nM | 63 nM | 29 nM | 5.5 nM | –
2 | B2 | – | – | – | – | 11 nM
3 | B3 | – | – | – | – | 14 nM
